The values that follow come from article doi:10.1101/2025.11.11.687775.

Read-outs that look alike come from different tables or passages of the source. Bounds are passed on as bounds.

The target in test [1] is microtubules of primary rat hippocampal neurons (rat (endogenous in primary hippocampal neurons)) (UniProt P68370).
Test [2] has the same target. Briefly: FRAP + reaction-diffusion simulation.
Test [3] has the same target. The source holds these as a separate data set.
For test [4] the target is unchanged. The experiment in a line: FRAP + reaction-diffusion simulation. This is another data set of the same source.
In test [5] the target is microtubules of Tau-knockout mouse neurons (mouse (endogenous in Tau-KO neurons)) (UniProt P68369).

“GFP-tagged Tau 198A single alanine substitution mutant (natural protein)” displayed an FRAP recovery plateau in rat neurons (Figure 3B) in test [1] of 0.586.
Usually Kd stands for the free concentration of one partner at which half of the binding sites on the other are occupied at equilibrium, for simple one-to-one binding. Turning to “GFP-tagged Tau 198A/199A mutant (2A) (natural protein)”, the Kd in test [2] is 905 nM.
With “GFP-tagged Tau 198A/199A/202A/205A mutant (4A) (natural protein)”, in test [2], the dissociation constant (Kd) is 510 nM.
“GFP-tagged Tau 199A single alanine substitution mutant (natural protein)” registered an FRAP recovery plateau in rat neurons (Figure 3B) in test [1] of 0.584. Further, the Kd in test [2] was 1350 nM.
For orientation: koff means a measure of how fast the partners let go of each other. For orientation: kon means a measure of how fast the partners come together. Take “GFP-tagged wild-type human Tau, 0N4R isoform (AcGFP-Tau0N4R-His) (from UniProt P10636-6 1-383) (natural protein)”: in test [3], the FRAP recovery rate constant (K) in rat neurons (Figure 3D), n = 12 is 0.081. The substance further came in with an FRAP recovery plateau in rat neurons (Figure 3B) in test [1] of 0.712. In test [2], the Kd was 3000 nM, the koff is over 0.1 s⁻¹ and the kon was over 300000 M⁻¹ s⁻¹. Besides, in test [4], the koff is over 0.3 s⁻¹ and the kon was over 100000 M⁻¹ s⁻¹. For the same substance, in test [5], the FRAP recovery rate constant (K), n = 6 (read as Tau-KO neurons) was 0.085.
